This assay concerns the target Macaca fascicularis CD3ε/δ-Fc fusion heterodimer (Macaca fascicularis) (UniProt Q95LI8). The assay is described as follows: SPR single point, hybridoma supernatant.

The record followed here is patent publication US20180222987A1.

Macaca fascicularis CD3ε/δ-Fc fusion heterodimer (Macaca fascicularis), sequence (chain, as listed by the source mutant, chain 1 of 2): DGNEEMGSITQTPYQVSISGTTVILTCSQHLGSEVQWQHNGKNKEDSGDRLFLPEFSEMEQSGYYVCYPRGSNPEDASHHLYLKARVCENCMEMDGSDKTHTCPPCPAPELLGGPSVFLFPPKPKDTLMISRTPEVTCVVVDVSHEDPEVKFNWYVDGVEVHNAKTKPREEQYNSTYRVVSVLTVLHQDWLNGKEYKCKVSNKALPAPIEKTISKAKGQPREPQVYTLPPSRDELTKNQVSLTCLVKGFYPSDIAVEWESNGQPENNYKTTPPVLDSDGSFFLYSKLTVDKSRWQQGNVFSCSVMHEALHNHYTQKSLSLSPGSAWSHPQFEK
Macaca fascicularis CD3ε/δ-Fc fusion heterodimer (Macaca fascicularis), sequence (Q95LI8 22-105, stated change not applied, chain 2 of 2): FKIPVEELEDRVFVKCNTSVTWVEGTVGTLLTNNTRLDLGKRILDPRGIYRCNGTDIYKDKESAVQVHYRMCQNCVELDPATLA

B1: 11F9-F8 anti-CD3 antibody (antibody, V domains shown)
VH: EVQLVETGGTLVQPGKSLKLTCATSGFTFSNAWMHWVRQSPEKQLEWVAQIKAKSNNYATYYAESVKGRFTISRDDSKTSVYLQLNSLREEDTAIYYCRGTQYGYNPFDYWGQGVMVTVSS
VL: DVVLTQTPVSLSVSLGGQVSISCRSSQSLVHNNGNTYLSWSLQKPGQSPQVLIYKVSNRFSGISNRFSGSGSGTDFTLKISRVEPDDLGVYYCGQGAHYPFTFGSGTKLEIK
Molecule B1 returned an RU at 25 nM of 16 RU.

B2: 11D7-C3 anti-CD3 antibody (antibody, V domains shown)
VH: EVQFVETGGSLVQPGKSLKLTCATSGFTFSNAWMHWVRQSPEKQLEWVAQIKAKSNNYATYYAESVKGRFTISRDDSKSSVYLQMNSLKEEDTATYYCRGLYYGLSPSDYWGQGVMVTVSS
VL: DVVMTQTPVSLSVSLGGQVSISCRSSQSLVHNNGNTYLSWYLQKPGQSPQLLIYKVSNRFSGISDRFSGSGSGTDFTLKISRVEPDDLGVYYCGQGTHYPFTFGSGTKLEIK
In turn, B2 registered an RU at 25 nM of 10 RU.

B3: 13C1-F6 anti-CD3 antibody (antibody, V domains shown)
VH: EVQLVETGGTLVQPGKSLKLTCATSGFTFSNAWMHWVRQSPEKQLEWVAQIKAKSNNYATYYAESVKGRFTISRDDSKTSVYLQLNSLREEDTAIYYCRGTQYGYNPFDYWGQGVMVTVSS
VL: DVVMTQSPVSLSVSLGGQVSISCRSSQSLVHNNGNTYLSWYLQRSGQSPQLLIYKVSNRLSGISDRFSGSGSGTDFTLKISRIEPDDLGVYYCGQGTQYPFTFGSGTRLEIK
As to B3, the RU at 25 nM came out at 15.5 RU.

B4: 4B4-D7 anti-CD3 antibody (antibody, V domains shown)
VH: EVQLVETGGRLVQPGRSLKLTCATSGFTFSNAWMHWVRQSPEKQLEWVAQIKARSNNYATYYAESVKGRFTISRDDSKSTIYLQMNSLKEEDTAIYYCRGTYYASKPFDYWGQGVMVTVSS
VL: DVVMTQTPVSLSVSLGGQVSISCRSSQSLVHDNGNTYLSWSLQRPGQSPQVLIYKVSNRFSGTSDRFTGSGSGTDFTLKISRVEPDDLGVYYCGQGTQYPFTFGSGTKLEIK
For the molecule B4, the RU at 25 nM turned out to be 14 RU.

B5: 4E7-C9 anti-CD3 antibody (antibody, V domains shown)
VH: EVQVVETGGSLVQPGKSLKLTCATSGFTFSNAWMHWVRQSPEKQLEWVAQIKDKSNNYATYYAESLKGRFTISRDDPKRSIYLQMNSLREEDTAIYYCRYVHYGIGYAMDAWGQGTSVTVSS
VL: DVVMTQTPVSLSVSLGGQVSISCRSSQSLEHNNGNTYLSWYLQKPGQSPQPLIYKVSNRFSGISDRFSGSGSGTDFTLKISRVEPDDLGVYYCGQGTQYPFTFGPGTKLELK
Consider B5, for which the RU at 25 nM came out at 10 RU.

B6: 6C9-C9 anti-CD3 antibody (antibody, V domains shown)
VH: AVQLVESGGGLVRPKESLKISCAASGFTFRNAAMYWVRQAPGKGLEWVARIRTQPNNYAKYYADSVKDRFTISRDDSKSMVYLQMDNLKTEDTAMYYCTGLVVTAMDAWGQGTSVTVSS
VL: DIQMTQSPSFLSASVGDRVTINCKASQNINKYLNWYQQKLGEAPKLLIYVTNNLQTGIPSRFSGSGSGTDYTLTISSLQPEDVATYFCLQHRSMYTFGTGTKLELK
B6: the RU at 25 nM came out at 32 RU.

B7: 8H2-F3 anti-CD3 antibody (antibody, V domains shown)
VH: QIQLVQSGPELKKPGESVKISCKASGYTFTDFAMNWVKQAPGNGLKWMGWINTQTGKPTYADGFKQRFVFSLETSASTIYLQINNLNIEDTATYFCTRGALASVGQGVMVTVSS
VL: DVVMTQTPVSLSVAIGQPASISCKSSQSLVGTSGKTYLNWLLQRPGQSPKRLIYLVSKLDSGIPDRFSGSGSETDFTLKISRVETDDLGVYYCLQGSHFPLTFGSGTKLEIK
B7 had an RU at 25 nM of 40 RU.

B8: 13H2-C3 anti-CD3 antibody (antibody, V domains shown)
VH: EEELVETGGSLVQPGKSLKLTCATSGFTFSNAWMHWVRQSPDKQLEWVAQIKAKSNNYATYYAESVKGRFTISRDDSKSSVYLQMNNLKEEDTAIYYCRYVHYGLAPMDAWGQGTSVTVSS
VL: DVVMTQTPVSLSVSLGGQVSISCRSSQSLVHNNGNTYLSWYLQKAGQSPQLLIYKVSNRFSGISDRFSGSGSGTDFILKISRVEPDDLGVFYCGQGTQYPFTFGAGTKLELK
As for B8, the RU at 25 nM came out at 7 RU.
